Paper PMC4118958, “Association of BLM and BRCA1 during Telomere Maintenance in ALT Cells” (PLoS ONE, 2014)

Biological target: BLM helicase, mutated in Bloom's syndrome (human (endogenous in U2OS), UniProt P54132 1-1417)
Assay: cell-based or functional assay

Sequence of BLM helicase, mutated in Bloom's syndrome (P54132 whole entry, change not shown): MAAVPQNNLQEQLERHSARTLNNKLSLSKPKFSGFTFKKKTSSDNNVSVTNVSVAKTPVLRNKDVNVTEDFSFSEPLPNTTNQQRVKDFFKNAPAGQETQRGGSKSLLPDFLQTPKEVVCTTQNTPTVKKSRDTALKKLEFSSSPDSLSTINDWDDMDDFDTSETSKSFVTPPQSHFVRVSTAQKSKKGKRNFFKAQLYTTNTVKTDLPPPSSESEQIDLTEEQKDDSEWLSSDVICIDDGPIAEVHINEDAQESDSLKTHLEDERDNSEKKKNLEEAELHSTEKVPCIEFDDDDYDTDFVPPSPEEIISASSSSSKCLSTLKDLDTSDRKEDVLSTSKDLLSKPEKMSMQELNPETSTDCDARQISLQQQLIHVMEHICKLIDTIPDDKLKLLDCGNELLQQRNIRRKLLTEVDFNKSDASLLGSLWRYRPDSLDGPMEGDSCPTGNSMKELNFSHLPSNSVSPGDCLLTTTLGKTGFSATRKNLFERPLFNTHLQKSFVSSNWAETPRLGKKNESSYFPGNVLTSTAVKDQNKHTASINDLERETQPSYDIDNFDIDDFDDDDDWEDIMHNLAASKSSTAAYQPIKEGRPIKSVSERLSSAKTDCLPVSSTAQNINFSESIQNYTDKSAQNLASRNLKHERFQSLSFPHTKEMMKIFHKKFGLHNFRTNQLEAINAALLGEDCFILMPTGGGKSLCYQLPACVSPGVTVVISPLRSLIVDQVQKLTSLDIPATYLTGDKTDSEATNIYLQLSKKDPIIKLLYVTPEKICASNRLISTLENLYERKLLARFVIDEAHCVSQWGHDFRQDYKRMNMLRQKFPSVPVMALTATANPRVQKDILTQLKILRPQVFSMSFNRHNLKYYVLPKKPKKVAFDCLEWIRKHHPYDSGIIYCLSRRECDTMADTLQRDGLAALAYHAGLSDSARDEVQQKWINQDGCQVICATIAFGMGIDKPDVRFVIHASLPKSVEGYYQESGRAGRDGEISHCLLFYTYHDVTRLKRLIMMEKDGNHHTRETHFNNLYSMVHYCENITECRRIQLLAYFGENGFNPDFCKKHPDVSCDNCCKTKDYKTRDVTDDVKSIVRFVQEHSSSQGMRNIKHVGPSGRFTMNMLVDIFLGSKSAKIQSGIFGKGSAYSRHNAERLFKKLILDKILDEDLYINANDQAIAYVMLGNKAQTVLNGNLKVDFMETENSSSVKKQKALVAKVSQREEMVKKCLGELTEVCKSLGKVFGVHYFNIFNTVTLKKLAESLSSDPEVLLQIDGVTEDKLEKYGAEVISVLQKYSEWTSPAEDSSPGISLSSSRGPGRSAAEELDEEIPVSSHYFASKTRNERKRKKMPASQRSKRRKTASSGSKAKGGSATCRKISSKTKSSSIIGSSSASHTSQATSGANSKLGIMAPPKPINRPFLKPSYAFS

B1: BRCA1 tumor suppressor (natural protein, human (endogenous in U2OS), UniProt P38398 1-1863, looked up)
chain: MDLSALRVEEVQNVINAMQKILECPICLELIKEPVSTKCDHIFCKFCMLKLLNQKKGPSQCPLCKNDITKRSLQESTRFSQLVEELLKIICAFQLDTGLEYANSYNFAKKENNSPEHLKDEVSIIQSMGYRNRAKRLLQSEPENPSLQETSLSVQLSNLGTVRTLRTKQRIQPQKTSVYIELGSDSSEDTVNKATYCSVGDQELLQITPQGTRDEISLDSAKKAACEFSETDVTNTEHHQPSNNDLNTTEKRAAERHPEKYQGSSVSNLHVEPCGTNTHASSLQHENSSLLLTKDRMNVEKAEFCNKSKQPGLARSQHNRWAGSKETCNDRRTPSTEKKVDLNADPLCERKEWNKQKLPCSENPRDTEDVPWITLNSSIQKVNEWFSRSDELLGSDDSHDGESESNAKVADVLDVLNEVDEYSGSSEKIDLLASDPHEALICKSERVHSKSVESNIEDKIFGKTYRKKASLPNLSHVTENLIIGAFVTEPQIIQERPLTNKLKRKRRPTSGLHPEDFIKKADLAVQKTPEMINQGTNQTEQNGQVMNITNSGHENKTKGDSIQNEKNPNPIESLEKESAFKTKAEPISSSISNMELELNIHNSKAPKKNRLRRKSSTRHIHALELVVSRNLSPPNCTELQIDSCSSSEEIKKKKYNQMPVRHSRNLQLMEGKEPATGAKKSNKPNEQTSKRHDSDTFPELKLTNAPGSFTKCSNTSELKEFVNPSLPREEKEEKLETVKVSNNAEDPKDLMLSGERVLQTERSVESSSISLVPGTDYGTQESISLLEVSTLGKAKTEPNKCVSQCAAFENPKGLIHGCSKDNRNDTEGFKYPLGHEVNHSRETSIEMEESELDAQYLQNTFKVSKRQSFAPFSNPGNAEEECATFSAHSGSLKKQSPKVTFECEQKEENQGKNESNIKPVQTVNITAGFPVVGQKDKPVDNAKCSIKGGSRFCLSSQFRGNETGLITPNKHGLLQNPYRIPPLFPIKSFVKTKCKKNLLEENFEEHSMSPEREMGNENIPSTVSTISRNNIRENVFKEASSSNINEVGSSTNEVGSSINEIGSSDENIQAELGRNRGPKLNAMLRLGVLQPEVYKQSLPGSNCKHPEIKKQEYEEVVQTVNTDFSPYLISDNLEQPMGSSHASQVCSETPDDLLDDGEIKEDTSFAENDIKESSAVFSKSVQKGELSRSPSPFTHTHLAQGYRRGAKKLESSEENLSSEDEELPCFQHLLFGKVNNIPSQSTRHSTVATECLSKNTEENLLSLKNSLNDCSNQVILAKASQEHHLSEETKCSASLFSSQCSELEDLTANTNTQDPFLIGSSKQMRHQSESQGVGLSDKELVSDDEERGTGLEENNQEEQSMDSNLGEAASGCESETSVSEDCSGLSSQSDILTTQQRDTMQHNLIKLQQEMAELEAVLEQHGSQPSNSYPSIISDSSALEDLRNPEQSTSEKAVLTSQKSSEYPISQNPEGLSADKFEVSADSSTSKNKEPGVERSSPSKCPSLDDRWYMHSCSGSLQNRNYPSQEELIKVVDVEEQQLEESGPHDLTETSYLPRQDLEGTPYLESGISLFSDDPESDPSEDRAPESARVGNIPSSTSALKVPQLKVAESAQSPAAAHTTDTAGYNAMEESVSREKPELTASTERVNKRMSMVVSGLTPEEFMLVYKFARKHHITLTNLITEETTHVVMKTDAEFVCERTLKYFLGIAGGKWVVSYFWVTQSIKERKMLNEHDFEVRGDVVNGRNHQGPKRARESQDRKIFRGLEICCYGPFTNMPTDQLEWMVQLCGASVVKELSSFTLGTGVHPIVVVQPDAWTEDNGFHAIGQMCEAPVVTREWVLDSVALYQCQELDTYLIPQIPHSHY
For B1, the “fold stimulation of BLM helicase activity by 3 nM full-length BRCA1 on a non-telomeric fork substrate” value was ~1.9 fold, the “fold stimulation of BLM helicase activity by 3 nM full-length BRCA1 on the fork substrate with two telomeric repeats” value was ~3.6 fold and the “initial unwinding rate of BLM (1.2 nM) on the telomeric fork in the presence of 3 nM BRCA1, fold increase” value was 1.7 fold.
